Paper PMC4335062, “Data-Driven Prediction and Design of bZIP Coiled-Coil Interactions” (PLoS Computational Biology, 2015)
Values joined by “and” are separate entries in the source; they are usually repeats but may differ in a detail not shown here. Identical values can stand only once. Where no end group is shown, it is not given here.

Key:
[1] = target: the molecule itself; assay: FRET or BRET; direct-binding FRET of the designed peptide with itself (row 'homodimer'; dimer to monomers); acceptor-labelled design titrated into donor-labelled design by note 1 of the tables; 37 °C
[2] = target: ATF5-d1 labeled at the C-terminus; assay: FRET or BRET; direct-binding FRET of the designed peptide with itself (row 'homodimer'; dimer to monomers); acceptor-labelled design titrated into donor-labelled design by note 1 of the tables; 23 °C

| Kd [2] [nM] | Binder | Kd [1] |
| --- | --- | --- |
|  | ATF4-d1 labeled at the C-terminus (designed binder, also: C59 label by assay: Rhodamine Red C2-maleimide or fluorescein-5-maleimide, solubility linker after the His6 tag; added to the C-terminus for labeling; one molecule for the rhodamine- and the fluorescein-labelled form; the assay tells which label stood there; also called ATF4-d1-Rhodamine; ATF4-d1-FITC; source: E. coli RP3098, purified (Ni-NTA under denaturing conditions, reverse-phase HPLC)) GESKEYKKGSGSNQIKTLRTRLSKLRKDNLQLEKDIANLERKAKDLRAEKEQLEYELGC | 1820 nM and 1110 nM and 2520 nM |
| 1000 | ATF5-d1 labeled at the C-terminus (designed binder, not fully specified) GESKEYKKGSGSKRIAYLRQRIAELRNENHVLESRIQRMEKEKDALQQDRDHLEYELGC(Rhodamine Red C2‑maleimide) |  |
